In patent publication US20060105953:

Test system: UbG-DsRx

For caspase-3, the “red fluorescence (DsRed) in live transgenic zebrafish embryos” value was “A control embryo (FIG. 1b) injected with a construct where the linker does not contain a cleavage site doesn't express any detectable red fluorescence (FIG. 1c)”.
